Publication PMC11931385, “Structural and functional analysis of cancer-associated missense variants in the retinoblastoma protein pocket domain” (The Journal of Biological Chemistry, 2025)
No end group written: not given here. TMR = tetramethyl rhodamine dye

What was measured:
Experiment in all cases: fluorescence polarisation; 25 °C; unlabeled Rb^P titrated against 1.5 nM TMR-E2F1^TD or 7.5 nM TMR-E7^LxCxE; 25 mM Tris pH 8.0, 200 mM NaCl, 1 mM DTT, 0.1% Tween-20; 2 min incubation; quadratic fit; apparent Kd for the variants, Kd for WT
Conditions in all cases: both partners purified
Rb^P A490V = molecular target: T1, Rb^P A490V (human, UniProt P06400 380-788, A490V)
T1 construct: also called variant 17
T1 sequence (looked up): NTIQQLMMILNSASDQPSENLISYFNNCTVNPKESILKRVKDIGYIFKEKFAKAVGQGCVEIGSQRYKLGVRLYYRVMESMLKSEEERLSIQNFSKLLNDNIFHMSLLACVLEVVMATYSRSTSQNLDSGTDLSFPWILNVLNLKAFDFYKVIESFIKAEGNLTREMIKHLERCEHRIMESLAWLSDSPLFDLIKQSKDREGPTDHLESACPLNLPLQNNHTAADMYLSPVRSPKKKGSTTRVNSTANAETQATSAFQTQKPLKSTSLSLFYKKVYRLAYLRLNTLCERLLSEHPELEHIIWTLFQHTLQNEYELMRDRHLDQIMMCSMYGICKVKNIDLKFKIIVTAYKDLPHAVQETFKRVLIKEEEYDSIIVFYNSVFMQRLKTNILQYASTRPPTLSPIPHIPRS

Rb^P D584Y = molecular target: T2, Rb^P D584Y (human, UniProt P06400 380-788, D584Y)
T2 construct: also called variant 32
T2 sequence (looked up): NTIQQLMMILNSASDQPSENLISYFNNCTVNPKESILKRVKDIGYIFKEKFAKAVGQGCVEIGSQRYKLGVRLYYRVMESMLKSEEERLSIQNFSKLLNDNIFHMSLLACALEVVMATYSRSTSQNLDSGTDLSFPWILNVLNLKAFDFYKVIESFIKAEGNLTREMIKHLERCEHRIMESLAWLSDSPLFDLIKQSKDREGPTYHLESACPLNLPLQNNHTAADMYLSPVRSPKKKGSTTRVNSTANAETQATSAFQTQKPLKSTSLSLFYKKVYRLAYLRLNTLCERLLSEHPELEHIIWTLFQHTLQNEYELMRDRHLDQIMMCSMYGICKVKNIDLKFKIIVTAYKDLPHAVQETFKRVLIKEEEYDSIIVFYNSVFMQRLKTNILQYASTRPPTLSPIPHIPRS

Rb^P R621P = molecular target: T3, Rb^P R621P (human, UniProt P06400 380-788, R621P)
T3 construct: also called variant 43
T3 sequence (looked up): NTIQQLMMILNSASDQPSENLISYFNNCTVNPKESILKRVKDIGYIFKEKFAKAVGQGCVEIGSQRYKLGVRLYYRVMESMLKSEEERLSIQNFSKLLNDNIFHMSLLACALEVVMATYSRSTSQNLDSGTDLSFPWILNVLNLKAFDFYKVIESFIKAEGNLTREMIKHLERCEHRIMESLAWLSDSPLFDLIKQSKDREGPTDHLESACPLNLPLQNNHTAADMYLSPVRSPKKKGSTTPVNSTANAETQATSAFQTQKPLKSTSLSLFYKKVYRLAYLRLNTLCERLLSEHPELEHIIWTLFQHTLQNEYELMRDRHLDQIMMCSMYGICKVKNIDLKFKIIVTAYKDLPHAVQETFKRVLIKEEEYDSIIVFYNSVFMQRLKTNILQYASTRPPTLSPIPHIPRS

Rb^P Q444R = molecular target: T4, Rb^P Q444R (human, UniProt P06400 380-788, Q444R)
T4 construct: also called variant 4
T4 sequence (looked up): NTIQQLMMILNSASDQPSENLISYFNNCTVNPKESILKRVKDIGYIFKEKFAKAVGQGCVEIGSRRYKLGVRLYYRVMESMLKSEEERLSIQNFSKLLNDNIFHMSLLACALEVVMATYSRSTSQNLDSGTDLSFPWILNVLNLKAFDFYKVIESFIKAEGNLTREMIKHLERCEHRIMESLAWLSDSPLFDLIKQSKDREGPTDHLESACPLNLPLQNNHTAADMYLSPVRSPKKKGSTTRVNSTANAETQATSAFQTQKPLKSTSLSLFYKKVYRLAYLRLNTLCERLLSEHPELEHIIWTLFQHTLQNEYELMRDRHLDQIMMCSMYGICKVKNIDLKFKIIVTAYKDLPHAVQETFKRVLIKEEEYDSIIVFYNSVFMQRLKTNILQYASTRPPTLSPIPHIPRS

Rb^P H673Y = molecular target: T5, Rb^P H673Y (human, UniProt P06400 380-788, H673Y)
T5 construct: also called variant 55
T5 sequence (looked up): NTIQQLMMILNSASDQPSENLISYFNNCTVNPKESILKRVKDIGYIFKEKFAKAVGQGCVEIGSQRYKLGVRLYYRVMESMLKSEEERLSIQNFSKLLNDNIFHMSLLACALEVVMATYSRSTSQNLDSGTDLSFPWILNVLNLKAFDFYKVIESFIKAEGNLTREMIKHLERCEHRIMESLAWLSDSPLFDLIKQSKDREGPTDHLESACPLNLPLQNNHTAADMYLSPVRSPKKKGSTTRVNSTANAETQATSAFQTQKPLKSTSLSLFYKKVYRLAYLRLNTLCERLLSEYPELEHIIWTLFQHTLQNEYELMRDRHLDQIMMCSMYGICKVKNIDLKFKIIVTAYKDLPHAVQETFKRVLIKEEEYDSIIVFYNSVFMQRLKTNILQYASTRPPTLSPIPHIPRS

B1: TMR-E2F1^TD, peptide of the E2F1 transactivation domain (peptide)
peptide: {TMR}-GEGIRDLFDCDFGDLTPLD
notes: also called E2F^TD; source: synthetic peptide, bought: GenScript
Rb^P A490V
  Kd: 48 nM
Rb^P D584Y
  Kd: 33 nM
Rb^P R621P
  Kd: 40 nM
Rb^P Q444R
  Kd: 15 nM
Rb^P H673Y
  Kd: 26 nM

B2: TMR-E7^LxCxE, LxCxE peptide of the E7 oncoprotein from HPV (peptide)
peptide: DLYCYEQLN
modifications: also: TMR label, position not given here
notes: source: synthetic peptide, bought: GenScript
Rb^P A490V
  Kd: 11 nM
Rb^P D584Y
  Kd: 12 nM
Rb^P R621P
  Kd: 12 nM
Rb^P Q444R
  Kd: 7 nM
Rb^P H673Y
  Kd: 10 nM
